In patent US20150337051A1 (MORPHOTEK, published 2015):

How the values were obtained:
[1] = target: T1, recombinant CHO TEM-1 Fc fusion protein (UniProt Q9HCU0); assay: ECL sandwich, competition: biotin-9G5 capture, sulfo-TAG-15F8 detection; MORAb-004 spike 1.5625 µg/mL, TEM-1-Fc QC 50 ng/mL; recovery at 0 µg/mL MORAb-004: 104
T1 sequence (looked up): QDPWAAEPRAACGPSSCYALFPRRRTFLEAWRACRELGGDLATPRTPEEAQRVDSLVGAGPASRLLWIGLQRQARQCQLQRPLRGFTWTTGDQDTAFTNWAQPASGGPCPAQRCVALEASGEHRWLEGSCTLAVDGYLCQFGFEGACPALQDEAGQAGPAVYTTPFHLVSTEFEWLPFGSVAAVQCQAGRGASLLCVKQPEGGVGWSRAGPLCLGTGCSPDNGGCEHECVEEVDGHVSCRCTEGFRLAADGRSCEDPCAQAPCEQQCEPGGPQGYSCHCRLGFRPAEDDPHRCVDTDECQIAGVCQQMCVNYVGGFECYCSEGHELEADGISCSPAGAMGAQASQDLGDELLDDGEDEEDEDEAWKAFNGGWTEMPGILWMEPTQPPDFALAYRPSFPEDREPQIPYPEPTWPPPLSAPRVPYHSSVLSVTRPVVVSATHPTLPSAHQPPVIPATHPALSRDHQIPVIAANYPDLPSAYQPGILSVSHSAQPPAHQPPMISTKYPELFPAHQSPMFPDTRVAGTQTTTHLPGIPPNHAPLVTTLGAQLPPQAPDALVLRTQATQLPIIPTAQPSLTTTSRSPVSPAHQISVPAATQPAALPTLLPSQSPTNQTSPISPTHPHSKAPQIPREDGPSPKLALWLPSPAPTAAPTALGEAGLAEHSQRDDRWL

[2] = target: T1, recombinant CHO TEM-1 Fc fusion protein; assay: ECL sandwich, competition: biotin-9G5 capture, sulfo-TAG-15F8 detection; MORAb-004 spike 12.5 µg/mL, TEM-1-Fc QC 0.4 ng/mL; recovery at 0 µg/mL MORAb-004: 109
[3] = target: T1, recombinant CHO TEM-1 Fc fusion protein; assay: ECL sandwich, competition: biotin-9G5 capture, sulfo-TAG-15F8 detection; MORAb-004 spike 3.125 µg/mL, TEM-1-Fc QC 50 ng/mL; recovery at 0 µg/mL MORAb-004: 104
[4] = target: T1, recombinant CHO TEM-1 Fc fusion protein; assay: ECL sandwich, competition: biotin-9G5 capture, sulfo-TAG-15F8 detection; MORAb-004 spike 6.25 µg/mL, TEM-1-Fc QC 2 ng/mL; recovery at 0 µg/mL MORAb-004: 106
[5] = target: T1, recombinant CHO TEM-1 Fc fusion protein; assay: ECL sandwich, competition: biotin-9G5 capture, sulfo-TAG-15F8 detection; MORAb-004 spike 0.78125 µg/mL, TEM-1-Fc QC 2 ng/mL; recovery at 0 µg/mL MORAb-004: 106
[6] = target: T1, recombinant CHO TEM-1 Fc fusion protein; assay: ECL sandwich, competition: biotin-9G5 capture, sulfo-TAG-15F8 detection; MORAb-004 spike 25 µg/mL, TEM-1-Fc QC 10 ng/mL; recovery at 0 µg/mL MORAb-004: 105
[7] = target: T1, recombinant CHO TEM-1 Fc fusion protein; assay: ECL sandwich, competition: biotin-9G5 capture, sulfo-TAG-15F8 detection; MORAb-004 spike 50 µg/mL, TEM-1-Fc QC 0.08 ng/mL; recovery at 0 µg/mL MORAb-004: 114
[8] = target: T1, recombinant CHO TEM-1 Fc fusion protein; assay: ECL sandwich, competition: biotin-9G5 capture, sulfo-TAG-15F8 detection; MORAb-004 spike 6.25 µg/mL, TEM-1-Fc QC 0.4 ng/mL; recovery at 0 µg/mL MORAb-004: 109
[9] = target: T1, recombinant CHO TEM-1 Fc fusion protein; assay: ECL sandwich, competition: biotin-9G5 capture, sulfo-TAG-15F8 detection; MORAb-004 spike 50 µg/mL, TEM-1-Fc QC 2 ng/mL; recovery at 0 µg/mL MORAb-004: 106
[10] = target: T1, recombinant CHO TEM-1 Fc fusion protein; assay: ECL sandwich, competition: biotin-9G5 capture, sulfo-TAG-15F8 detection; MORAb-004 spike 12.5 µg/mL, TEM-1-Fc QC 0.08 ng/mL; recovery at 0 µg/mL MORAb-004: 114

B1: MORAb-004 (antibody, INN chains, looked up, V domains shown)
VH: QVQLQESGPGLVRPSQTLSLTCTASGYTFTDYVIHWVKQPPGRGLEWIGYINPYDDDTTYNQKFKGRVTMLVDTSSNTAYLRLSSVTAEDTAVYYCARRGNSYDGYFDYSMDYWGSGTPVTVSS
VL: DIQMTQSPSSLSASVGDRVTITCRASQNVGTAVAWLQQTPGKAPKLLIYSASNRYTGVPSRFSGSGSGTDYTFTISSLQPEDIATYYCQQYTNYPMYTFGQGTKVQIK
- % Recovery of TEM-1 QCs spiked with MORAb-004 [1]: 98.9%
- % Recovery of TEM-1 QCs spiked with MORAb-004 [2]: 96.5%
- % Recovery of TEM-1 QCs spiked with MORAb-004 [3]: 94.5%
- % Recovery of TEM-1 QCs spiked with MORAb-004 [4]: 94.2%
- % Recovery of TEM-1 QCs spiked with MORAb-004 [5]: 99.9%
- % Recovery of TEM-1 QCs spiked with MORAb-004 [6]: 91.3%
- % Recovery of TEM-1 QCs spiked with MORAb-004 [7]: 94.1%
- % Recovery of TEM-1 QCs spiked with MORAb-004 [8]: 98%
- % Recovery of TEM-1 QCs spiked with MORAb-004 [9]: 89.9%
- % Recovery of TEM-1 QCs spiked with MORAb-004 [10]: 99.4%
